Measurements taken from the Human Domainome abundance scans (Beltran et al. 2025).
± gives the uncertainty stated by the source.

B1: Tumor protein p73, residues 487 to 549; numbered along this chain, O15350 (parent)
chain: YHADPSLVSFLTGLGCPNCIEYFTSQGLQSIYHLQNLTIEDLGALKIPEQYRMTIWRGLQDLK

Variants of: B1
Assay: abundance fitness (aPCA) (normalised: wild type 0, dead -1); higher = more abundant; growth selection in yeast, the domain comes from the species named
Conditions: Homo sapiens

Question: For YHADPSLVSFLTGLGCPNCIEYFTSQGLQSIYHLQGLTIEDLGALKIPEQYRMTIWRGLQDLK [N36G], which abundance fitness is on record?
Answer: 0.013 ± 0.035

Question: Which abundance fitness does the source give for YHADPSLVSFLTGLGCPNCIEYFTSQGLQSIYHLQALTIEDLGALKIPEQYRMTIWRGLQDLK [N36A] here?
Answer: -0.04 ± 0.04

Question: With YHADPSLVSFLTGLGCPNCIEYFTSQGLQSIYHLQPLTIEDLGALKIPEQYRMTIWRGLQDLK [N36P] as the variant, how does the abundance fitness read?
Answer: -0.053 ± 0.078

Question: Which abundance fitness does the source give for YHADPSLVSFLTGLGCPNCIEYFTSQGLQSIYHLQSLTIEDLGALKIPEQYRMTIWRGLQDLK [N36S] here?
Answer: 0.046 ± 0.039

Question: Which abundance fitness does the source give for YHADPSLVSFLTGLGCPNCIEYFTSQGLQSIYHLQELTIEDLGALKIPEQYRMTIWRGLQDLK [N36E] here?
Answer: 0.087 ± 0.043

Question: Which abundance fitness does the source give for YHADPSLVSFLTGLGCPNCIEYFTSQGLQSIYHLQTLTIEDLGALKIPEQYRMTIWRGLQDLK [N36T] here?
Answer: -0.026 ± 0.059

Question: For YHADPSLVSFLTGLGCPNCIEYFTSQGLQSIYHLQDLTIEDLGALKIPEQYRMTIWRGLQDLK [N36D], which abundance fitness is on record?
Answer: 0.075 ± 0.039

Question: For YHADPSLVSFLTGLGCPNCIEYFTSQGLQSIYHLQWLTIEDLGALKIPEQYRMTIWRGLQDLK [N36W], which abundance fitness is on record?
Answer: -0.078 ± 0.046

Question: Which abundance fitness does the source give for YHADPSLVSFLTGLGCPNCIEYFTSQGLQSYYHLQNLTIEDLGALKIPEQYRMTIWRGLQDLK [I31Y] here?
Answer: -0.133 ± 0.064

Question: Which abundance fitness does the source give for YHADPSLVSFLTGLGCPNCIEYFTSQGLQSRYHLQNLTIEDLGALKIPEQYRMTIWRGLQDLK [I31R] here?
Answer: -0.057 ± 0.033

Question: With YHADPSLVSFLTGLGCPNCIEYFTSQGLQSWYHLQNLTIEDLGALKIPEQYRMTIWRGLQDLK [I31W] as the variant, how does the abundance fitness read?
Answer: -0.025 ± 0.038

Question: With YHADPSLVSFLTGLGCPNCIEYFTSQGLQSQYHLQNLTIEDLGALKIPEQYRMTIWRGLQDLK [I31Q] as the variant, how does the abundance fitness read?
Answer: 0.026 ± 0.052

Question: For YHADPSLVSFLTGLGCPNCIEYFTSQGLQSTYHLQNLTIEDLGALKIPEQYRMTIWRGLQDLK [I31T], which abundance fitness is on record?
Answer: -0.005 ± 0.05

Question: Which abundance fitness does the source give for YHADPSLVSFLTGLGCPNCIEYFTSQGLQSPYHLQNLTIEDLGALKIPEQYRMTIWRGLQDLK [I31P] here?
Answer: -0.048 ± 0.052

Question: For YHADPSLVSFLTGLGCPNCIEYFTSQGLQSVYHLQNLTIEDLGALKIPEQYRMTIWRGLQDLK [I31V], which abundance fitness is on record?
Answer: 0.042 ± 0.036

Question: Which abundance fitness does the source give for YHADPSLVSFLTGLGCPNCIEYFTSQGLQSIYHYQNLTIEDLGALKIPEQYRMTIWRGLQDLK [L34Y] here?
Answer: -0.285 ± 0.14

Question: With YHADPSLVSFLTGLGCPNCIEYFTSQGLQSIYHDQNLTIEDLGALKIPEQYRMTIWRGLQDLK [L34D] as the variant, how does the abundance fitness read?
Answer: -0.835 ± 0.12

Question: For YHADPSLVSFLTGLGCPNCIEYFTSQGLQSIYHMQNLTIEDLGALKIPEQYRMTIWRGLQDLK [L34M], which abundance fitness is on record?
Answer: 0.021 ± 0.051

Question: Which abundance fitness does the source give for YHADPSLVSFLTGLGCPNCIEYFTSQGLQSIYHRQNLTIEDLGALKIPEQYRMTIWRGLQDLK [L34R] here?
Answer: -0.867 ± 0.077

Question: Which abundance fitness does the source give for YHADPSLVSFLTGLGCPNCIEYFTSQGLQSIYHQQNLTIEDLGALKIPEQYRMTIWRGLQDLK [L34Q] here?
Answer: -0.529 ± 0.073

Question: With YHADPSLVSFLTGLGCPNCIEYFTSQGLQSIYHAQNLTIEDLGALKIPEQYRMTIWRGLQDLK [L34A] as the variant, how does the abundance fitness read?
Answer: 0.048 ± 0.039

Question: With YHADPSLVSFLTGLGCPNCIEYFTSQGLQSIYHTQNLTIEDLGALKIPEQYRMTIWRGLQDLK [L34T] as the variant, how does the abundance fitness read?
Answer: 0.018 ± 0.045

Question: With YHADPSLVSFLTGLGCPNCIEYFTSQGLQSIYHEQNLTIEDLGALKIPEQYRMTIWRGLQDLK [L34E] as the variant, how does the abundance fitness read?
Answer: -0.638 ± 0.062

Question: For YHADPSLVSFLTGLGCPNCIEYFTSQGLQSIYHCQNLTIEDLGALKIPEQYRMTIWRGLQDLK [L34C], which abundance fitness is on record?
Answer: -0.049 ± 0.068

Question: With YHADPSLVSFLTGLGCPNCIEYFTSQGLQSIYHSQNLTIEDLGALKIPEQYRMTIWRGLQDLK [L34S] as the variant, how does the abundance fitness read?
Answer: -0.319 ± 0.045

Question: For YHADPSLVSFLTGLGCPNCIEYFTSQGLQSIYHPQNLTIEDLGALKIPEQYRMTIWRGLQDLK [L34P], which abundance fitness is on record?
Answer: -0.671 ± 0.12

Question: With YHADPSLVSFLTGLGCPNCIEYFTSQGLQSIYHNQNLTIEDLGALKIPEQYRMTIWRGLQDLK [L34N] as the variant, how does the abundance fitness read?
Answer: -0.536 ± 0.13

Question: For YHADPSLVSFLTGLGCPNCIEYFTSQGLQSIYHVQNLTIEDLGALKIPEQYRMTIWRGLQDLK [L34V], which abundance fitness is on record?
Answer: 0.038 ± 0.028

Question: For YHADPSLVSFLTGLGCPNCIEYFTSQGLQSIYHLCNLTIEDLGALKIPEQYRMTIWRGLQDLK [Q35C], which abundance fitness is on record?
Answer: -0.07 ± 0.083

Question: Which abundance fitness does the source give for YHADPSLVSFLTGLGCPNCIEYFTSQGLQSIYHLWNLTIEDLGALKIPEQYRMTIWRGLQDLK [Q35W] here?
Answer: -0.245 ± 0.041

Question: For YHADPSLVSFLTGLGCPNCIEYFTSQGLQSIYHLVNLTIEDLGALKIPEQYRMTIWRGLQDLK [Q35V], which abundance fitness is on record?
Answer: 0.055 ± 0.046

Question: For YHADPSLVSFLTGLGCPNCIEYFTSQGLQSIYHLFNLTIEDLGALKIPEQYRMTIWRGLQDLK [Q35F], which abundance fitness is on record?
Answer: -0.142 ± 0.085

Question: Which abundance fitness does the source give for YHADPSLVSFLTGLGCPNCIEYFTSQGLQSIYHLHNLTIEDLGALKIPEQYRMTIWRGLQDLK [Q35H] here?
Answer: 0.026 ± 0.055

Question: With YHADPSLVSFLTGLGCPNCIEYFTSQGLQSIYHLYNLTIEDLGALKIPEQYRMTIWRGLQDLK [Q35Y] as the variant, how does the abundance fitness read?
Answer: 0.031 ± 0.057

Question: Which abundance fitness does the source give for YHADPSLVSFLTGLGCPNCIEYFTSQGLQSIYHLNNLTIEDLGALKIPEQYRMTIWRGLQDLK [Q35N] here?
Answer: 0.192 ± 0.071

Question: Which abundance fitness does the source give for YHADPSLVSFLTGLGCPNCIEYFTSQGLQSIYHLPNLTIEDLGALKIPEQYRMTIWRGLQDLK [Q35P] here?
Answer: -0.184 ± 0.073

Question: With YHADPSLVSFLTGLGCPNCIEYFTSQGLQSIYHLSNLTIEDLGALKIPEQYRMTIWRGLQDLK [Q35S] as the variant, how does the abundance fitness read?
Answer: 0.071 ± 0.043

Question: For YHADPSLVSFLTGLGCPNCIEYFTSQGLQSIYHLMNLTIEDLGALKIPEQYRMTIWRGLQDLK [Q35M], which abundance fitness is on record?
Answer: -0.058 ± 0.051

Question: For YHADPSLVSFLTGLGCPNCIEYFTSQGLQSIYHLANLTIEDLGALKIPEQYRMTIWRGLQDLK [Q35A], which abundance fitness is on record?
Answer: -0.019 ± 0.042

Question: Which abundance fitness does the source give for YHADPSLVSFLTGLGCPNCIEYFTSQGLQSIYHLDNLTIEDLGALKIPEQYRMTIWRGLQDLK [Q35D] here?
Answer: 0.073 ± 0.08

Question: With YHADPSLVSFLTGLGCPNCIEYFTSQGLQSIYHLENLTIEDLGALKIPEQYRMTIWRGLQDLK [Q35E] as the variant, how does the abundance fitness read?
Answer: 0.005 ± 0.066

Question: For YHADPSLVSFLTGLGCPNCIEYFTSQGLQSIYHLKNLTIEDLGALKIPEQYRMTIWRGLQDLK [Q35K], which abundance fitness is on record?
Answer: 0.078 ± 0.057

Question: With YHADPSLVSFLTGLGCPNCIEYFTSQGLQSIYHLTNLTIEDLGALKIPEQYRMTIWRGLQDLK [Q35T] as the variant, how does the abundance fitness read?
Answer: -0.084 ± 0.042
